Source: PMC12416549 (2024)

T1: TNFR1 (Homo sapiens, UniProt P19438)
T1 chain: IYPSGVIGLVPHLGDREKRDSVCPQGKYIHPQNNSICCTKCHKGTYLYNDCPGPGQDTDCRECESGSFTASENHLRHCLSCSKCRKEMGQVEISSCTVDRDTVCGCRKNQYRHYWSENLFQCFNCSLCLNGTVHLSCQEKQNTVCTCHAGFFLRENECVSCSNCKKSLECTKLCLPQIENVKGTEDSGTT


Molecular target: T1, TNFR1
Assay: yeast display SC50

| Binder | apparent Kd (screen) [nM] |
| --- | --- |
| A9H (designed binder) SMEEEVEKHAKEYEKKKKEAIEKHLEKLKAKDKEAAERFLKELEEAAKEYAKDEAKTMSEEEAKRRAKKYKEKVLLSELSEEEQKEIKEAEEKLVRTILKYVEEAAK | 0.539 |
| K33R (designed binder) SMEEEVEKAAKEYEKKKKEAIEKHLEKLKAKDREAAERFLKELEEAAKEYAKDEAKTMSEEEAKRRAKKYKEKVLLSELSEEEQKEIKEAEEKLVRTILKYVEEAAK | 0.869 |
| M2V (designed binder) SVEEEVEKAAKEYEKKKKEAIEKHLEKLKAKDKEAAERFLKELEEAAKEYAKDEAKTMSEEEAKRRAKKYKEKVLLSELSEEEQKEIKEAEEKLVRTILKYVEEAAK | 0.446 |
| E7M (designed binder) SMEEEVMKAAKEYEKKKKEAIEKHLEKLKAKDKEAAERFLKELEEAAKEYAKDEAKTMSEEEAKRRAKKYKEKVLLSELSEEEQKEIKEAEEKLVRTILKYVEEAAK | 10.4 |
| K48L (designed binder) SMEEEVEKAAKEYEKKKKEAIEKHLEKLKAKDKEAAERFLKELEEAALEYAKDEAKTMSEEEAKRRAKKYKEKVLLSELSEEEQKEIKEAEEKLVRTILKYVEEAAK | 0.49 |
| S59G (designed binder) SMEEEVEKAAKEYEKKKKEAIEKHLEKLKAKDKEAAERFLKELEEAAKEYAKDEAKTMGEEEAKRRAKKYKEKVLLSELSEEEQKEIKEAEEKLVRTILKYVEEAAK | 0.446 |
| L40C (designed binder) SMEEEVEKAAKEYEKKKKEAIEKHLEKLKAKDKEAAERFCKELEEAAKEYAKDEAKTMSEEEAKRRAKKYKEKVLLSELSEEEQKEIKEAEEKLVRTILKYVEEAAK | 0.446 |
| A51T (designed binder) SMEEEVEKAAKEYEKKKKEAIEKHLEKLKAKDKEAAERFLKELEEAAKEYTKDEAKTMSEEEAKRRAKKYKEKVLLSELSEEEQKEIKEAEEKLVRTILKYVEEAAK | 3.3 |
| L25M (designed binder) SMEEEVEKAAKEYEKKKKEAIEKHMEKLKAKDKEAAERFLKELEEAAKEYAKDEAKTMSEEEAKRRAKKYKEKVLLSELSEEEQKEIKEAEEKLVRTILKYVEEAAK | 0.539 |
| A47Q (designed binder) SMEEEVEKAAKEYEKKKKEAIEKHLEKLKAKDKEAAERFLKELEEAQKEYAKDEAKTMSEEEAKRRAKKYKEKVLLSELSEEEQKEIKEAEEKLVRTILKYVEEAAK | 0.49 |
| E42Y (designed binder) SMEEEVEKAAKEYEKKKKEAIEKHLEKLKAKDKEAAERFLKYLEEAAKEYAKDEAKTMSEEEAKRRAKKYKEKVLLSELSEEEQKEIKEAEEKLVRTILKYVEEAAK | 6.43 |
| F39G (designed binder) SMEEEVEKAAKEYEKKKKEAIEKHLEKLKAKDKEAAERGLKELEEAAKEYAKDEAKTMSEEEAKRRAKKYKEKVLLSELSEEEQKEIKEAEEKLVRTILKYVEEAAK | 2.73 |
| E54Q (designed binder) SMEEEVEKAAKEYEKKKKEAIEKHLEKLKAKDKEAAERFLKELEEAAKEYAKDQAKTMSEEEAKRRAKKYKEKVLLSELSEEEQKEIKEAEEKLVRTILKYVEEAAK | 10.4 |
| E37N (designed binder) SMEEEVEKAAKEYEKKKKEAIEKHLEKLKAKDKEAANRFLKELEEAAKEYAKDEAKTMSEEEAKRRAKKYKEKVLLSELSEEEQKEIKEAEEKLVRTILKYVEEAAK | 0.446 |
| E14D (designed binder) SMEEEVEKAAKEYDKKKKEAIEKHLEKLKAKDKEAAERFLKELEEAAKEYAKDEAKTMSEEEAKRRAKKYKEKVLLSELSEEEQKEIKEAEEKLVRTILKYVEEAAK | 1.16 |

Now from value to binder:

| apparent Kd (screen) [nM] | Binder |
| --- | --- |
| 0.49 | K64G (designed binder) SMEEEVEKAAKEYEKKKKEAIEKHLEKLKAKDKEAAERFLKELEEAAKEYAKDEAKTMSEEEAGRRAKKYKEKVLLSELSEEEQKEIKEAEEKLVRTILKYVEEAAK |
| 1.4 | K100A (designed binder) SMEEEVEKAAKEYEKKKKEAIEKHLEKLKAKDKEAAERFLKELEEAAKEYAKDEAKTMSEEEAKRRAKKYKEKVLLSELSEEEQKEIKEAEEKLVRTILAYVEEAAK |
| 0.446 | K85Y (designed binder) SMEEEVEKAAKEYEKKKKEAIEKHLEKLKAKDKEAAERFLKELEEAAKEYAKDEAKTMSEEEAKRRAKKYKEKVLLSELSEEEQYEIKEAEEKLVRTILKYVEEAAK |
| 5.31 | K73P (designed binder) SMEEEVEKAAKEYEKKKKEAIEKHLEKLKAKDKEAAERFLKELEEAAKEYAKDEAKTMSEEEAKRRAKKYKEPVLLSELSEEEQKEIKEAEEKLVRTILKYVEEAAK |
| 1.27 | S80V (designed binder) SMEEEVEKAAKEYEKKKKEAIEKHLEKLKAKDKEAAERFLKELEEAAKEYAKDEAKTMSEEEAKRRAKKYKEKVLLSELVEEEQKEIKEAEEKLVRTILKYVEEAAK |
| 7.78 | L79P (designed binder) SMEEEVEKAAKEYEKKKKEAIEKHLEKLKAKDKEAAERFLKELEEAAKEYAKDEAKTMSEEEAKRRAKKYKEKVLLSEPSEEEQKEIKEAEEKLVRTILKYVEEAAK |
| 1.69 | S59N (designed binder) SMEEEVEKAAKEYEKKKKEAIEKHLEKLKAKDKEAAERFLKELEEAAKEYAKDEAKTMNEEEAKRRAKKYKEKVLLSELSEEEQKEIKEAEEKLVRTILKYVEEAAK |
| 1.4 | E60T (designed binder) SMEEEVEKAAKEYEKKKKEAIEKHLEKLKAKDKEAAERFLKELEEAAKEYAKDEAKTMSTEEAKRRAKKYKEKVLLSELSEEEQKEIKEAEEKLVRTILKYVEEAAK |
| 1.86 | L79I (designed binder) SMEEEVEKAAKEYEKKKKEAIEKHLEKLKAKDKEAAERFLKELEEAAKEYAKDEAKTMSEEEAKRRAKKYKEKVLLSEISEEEQKEIKEAEEKLVRTILKYVEEAAK |
| 0.539 | E83R (designed binder) SMEEEVEKAAKEYEKKKKEAIEKHLEKLKAKDKEAAERFLKELEEAAKEYAKDEAKTMSEEEAKRRAKKYKEKVLLSELSEERQKEIKEAEEKLVRTILKYVEEAAK |
| 13.8 | I98L (designed binder) SMEEEVEKAAKEYEKKKKEAIEKHLEKLKAKDKEAAERFLKELEEAAKEYAKDEAKTMSEEEAKRRAKKYKEKVLLSELSEEEQKEIKEAEEKLVRTLLKYVEEAAK |
